Data set [1] deals with the molecule itself. Put plainly: transmission electron microscopy; self-association into filaments.
The target of the next data set is citrate synthase. Nature of the data set: cell-based or functional assay.

B1: Methanococcus jannaschii gamma-Prefoldin (γ-PFD) (other)
chain: MVNEVIDINEAVRAYIAQIEGLRAEIGRLDATIATLRQSLATLKSLKTLGEGKTVLVPVGSIAQVEMKVEKMDKVVVSVGQNISAELEYEEALKYIEDEIKKLLTFRLVLEQAIAELYAKIEDLIAEAQQTSEEEKAEEEENEEKAE
notes: Recombinant protein expressed in E. coli from the genomic M. jannaschii gene; It forms long filaments of identical subunits; also called γ prefoldin; Mj-γ-PFD
Take B1: in data set [1], the binding result is on record as “binds”. In the data set with citrate synthase, the “reduction of citrate synthase aggregation at 45° C.” value was 2 :1 monomer-to-monomer stoichiometric ratio and the “stabilization of citrate synthase against aggregation at 45° C.” value was 5 :1 monomer-to-monomer stoichiometric ratio.

These data come from patent US20110045554A1 (University of California, published 2011).
